Assay [1] deals with EBOV GP[change] (unstabilised, ectodomain-only Ebola virus glycoprotein without mucin-like domain) (Ebola virus (Mayinga 1976 strain)) (UniProt Q05320). The assay can be described thus: SEC.
Assay [2] deals with NiV F[change] (recombinant NiV sF glycoprotein in its postfusion conformation) (Nipah virus). The assay can be described thus: SEC.

Broadly, the stoichiometry N is a count of units in the complex or per binding partner.

In the case of “EBOV GP[change] (unstabilised, ectodomain-only Ebola virus glycoprotein without mucin-like domain) (from UniProt Q05320) (domain or fragment)”, the stoichiometry N in assay [1] was found to be 3.

For “NiV F[change] (recombinant NiV sF glycoprotein in its postfusion conformation) (domain or fragment)”, in assay [2], the stoichiometry N came out at 3.

The values above are taken from article PMC9436389 (Frontiers in Immunology, 2022).
